The target of test [1] is Rvb2 (S. cerevisiae, UniProt Q12464 1-471). Kind of test: SEC. On the technique in general: Size exclusion chromatography separates by hydrodynamic size, large species first.
In test [2] the target is Rvb2-R350A (S. cerevisiae, UniProt Q12464 1-471, R350A). The test can be described thus: SEC.

The text below walks through data of publication PMC11118528 (bioRxiv, 2024).

Substitutions are numbered along the chain they refer to. Names may count otherwise.

Chain of Rvb2 (Q12464 whole entry): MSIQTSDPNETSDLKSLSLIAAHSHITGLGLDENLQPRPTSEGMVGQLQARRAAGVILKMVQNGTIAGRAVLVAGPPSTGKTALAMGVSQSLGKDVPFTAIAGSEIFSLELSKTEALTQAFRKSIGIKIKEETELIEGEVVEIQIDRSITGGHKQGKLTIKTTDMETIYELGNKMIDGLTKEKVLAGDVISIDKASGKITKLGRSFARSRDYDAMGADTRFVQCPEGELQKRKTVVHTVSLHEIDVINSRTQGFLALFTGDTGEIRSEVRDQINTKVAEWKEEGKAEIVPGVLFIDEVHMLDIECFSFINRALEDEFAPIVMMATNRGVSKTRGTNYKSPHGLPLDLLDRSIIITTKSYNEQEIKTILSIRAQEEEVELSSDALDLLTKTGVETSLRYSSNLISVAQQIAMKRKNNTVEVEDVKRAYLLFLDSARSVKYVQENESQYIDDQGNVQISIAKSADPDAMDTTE
Chain of Rvb2-R350A (Q12464 whole entry R350A): as the sequence (Q12464 whole entry) above, with R350A counted along it

B1: Rvb1 (enzyme)
chain: MVAISEVKENPGVNSSNSGAVTRTAAHTHIKGLGLDESGVAKRVEGGFVGQIEAREACGVIVDLIKAKKMSGRAILLAGGPSTGKTALALAISQELGPKVPFCPLVGSELYSVEVKKTETLMENFRRAIGLRIKETKEVYEGEVTELTPEDAENPLGGYGKTISHVIVGLKSAKGTKTLRLDPTIYESIQREKVSIGDVIYIEANTGAVKRVGRSDAYATEFDLETEEYVPLPKGEVHKKKEIVQDVTLHDLDVANARPQGGQDVISMMGQLLKPKKTEITEKLRQEVNKVVAKYIDQGVAELIPGVLFIDEVNMLDIEIFTYLNKALESNIAPVVVLASNRGMTTVRGTEDVISPHGVPPDLIDRLLIVRTLPYDKDEIRTIIERRATVERLQVESSALDLLATMGTETSLRYALQLLAPCGILAQTSNRKEIVVNDVNEAKLLFLDAKRSTKILETSANYL
For B1, the binding result in test [1] and in test [2] was “binds” each time.

B2: Rvb1-R366A (enzyme)
chain: B1 chain with R366A
Regarding B2, the binding result in test [1] and in test [2] was “binds” in each case.
